From PMC2824112, “A comparative analysis of the fluorescence properties of the wild-type and active site mutants of the hepatitis C virus autoprotease NS2-3” (Biochimica et Biophysica Acta, 2010)

Biological target: the molecule itself
Test: cross-linking; glutaraldehyde (final 0.001-0.002% v/v in refolding buffer) on refolded NS2-3 precursor (0.2 uM), 50 ul, 25 °C, 5 min; SDS-PAGE and western blot with anti-FLAG; monomer to dimer

B1: JFH-1 NS2-3 wild-type precursor (HCV genotype 2a NS2-3 autoprotease, residues 907-1210) (domain or fragment)
chain: RAALTHVPYFVRAHALIRVCALVKQLAGGRYVQVALLALGRWTGTYIYDHLTPMSDWAASGLRDLAVAVEPIIFSPMEKKVIVWGAETAACGDILHGLPVSARLGQEILLGPADGYTSKGWKLLAPITAYAQQTRGLLGAIVVSMTGRDRTEQAGEVQILSTVSQSFLGTTISGVLWTVYHGAGNKTLAGLRGPVTQMYSSAEGDLVGWPSPPGTKSLEPCKCGAVDLYLVTRNADVIPARRRGDKRGALLSPRPISTLKGSSGGPVLCPRGHVVGLFRAAVCSRGVAKSIDFIPVETLDVVTR
notes: The wild type auto-cleaves at 25 °C with about 30% efficiency overnight; also called WT NS2-3; NS2-3 precursor; not shown: FLAG, C-terminal, kept
  stoichiometry N: 2
